This series in a line: yeast display, Sf9 membrane polyspecificity reagent, FACS + sequencing; frameworks hold sequencing errors. A digest of the protocol:
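A nanobody's polyreactivity label depends on the gate it was sorted from. Yeast display cells were stained with 10% biotinylated, detergent-solubilized Sf9 membrane reagent for 1 hour at 4 °C, enriched on streptavidin microbeads and sorted by FACS. The low and high (top ~1%) gates were set on anti-HA fluorescence for expression and streptavidin fluorescence for reagent binding.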
As for “QVQLVESGGGLVQSGGSLRLSCAASGSTIPSYALGWYRHAPGKERELVASITYSDGTTSYADSVKGRFTISRDNAKNTVYLQMNSLKPEDTAVYYCNAVYYREGMDYWGQGTQVTVSS”, the “polyreactivity (PSR sort gate)” value is “low polyreactivity”.

Consider “QVQLVESGGGLVQSGGSLRLSCDASGITFKYAMGCYSQAPWKESELVAAISWSGGRTYYADSVKGRFTISRDNAKNTVYLQMNSLKPEDTAVYYCNAYRRYNDEDYWGQGTQVTVSS”, for which the “polyreactivity (PSR sort gate)” value was “high polyreactivity”.

In the case of “QVQLVESGGGLVQTGGSLRLICAASGRTFAVNDMGWYRQARGKERELVAAITWRGDSTYYADSVKGRFTISRDNAKNTVYLQMISLKPEDTAVYYCNAYYDGDWRYTSLETGEHWGQGTQVTVSS”, the “polyreactivity (PSR sort gate)” value is on record as “low polyreactivity”.

As for “QVQLVESGGGLVQTGGSLRLSCAASGIIFYYYAMGWYRQAPGKERELVAAISWSGDGTYYADSVKGRFTISRDNAKNTVYLQMNSLKPEDTAVYYCAALNDGFTAYDYLDEYTDYGYWGQGTQVTVSS”, the “polyreactivity (PSR sort gate)” value is on record as “low polyreactivity”.

For “QVQLVESGGGLVQVGGSLRLSCAASGITLSYYAMGWYRQAPRKERELVASITVSRTSTYYADSVKGRFTISRDNAKNTVYLQMNSLKPEDTEVYYCNADGDHPYRRNDYWGQGTQVTVSS”, the “polyreactivity (PSR sort gate)” value was “low polyreactivity”.

On to “QVQLVESGGGLVRAGGSLRLSCAASGSTFTNNAMGWYRQAPGKERELVAAITWIGGNTYYADTVKGRFTISRDNAKNTVYLQMNSLKPEDTAVYYCAADRRSRYHDVYGWLYYYWGQGTQVTVSS”, for which the “polyreactivity (PSR sort gate)” value is given as “low polyreactivity”.

“QVQLVESGGGLYQAGGSLRLNCAASGYIFQTYAMVWYRQAPGKEREFVAAITSGAGRTSYADSVKGRFTISRDNAKNTVYLELNSLIPEVTAVYYCNARGRKRSYHRKSSDPYGYWGQGNQVTVSS”: the “polyreactivity (PSR sort gate)” value was “high polyreactivity”.

For “QVQLVESGGGLYQAGGSLRLSCAASGRIFRYYAMGWYRQAPGKERELVAAINWSGGSTYYADSVKGRFTISRDNAKNTVYLQMNSLKPEDTAVYYCNTRWYVGDDWGQGTQVTVSS”, the “polyreactivity (PSR sort gate)” value is listed as “high polyreactivity”.

On to “QVQLVESGGGLYQAGGSLRLTCAASGNIFYINTMGWYRQAPGKEMELVAAIEASDGSTYYADSVKGRFTISRDKAKNTVYLLMNSLKPEVTAVNYCATRRGYDSVYYFYTLWYYYWGQGTQVTVSS”, for which the “polyreactivity (PSR sort gate)” value is given as “low polyreactivity”.

“QVQLVESGGGRVQAGGSLRLRCAASGRTFRYYAMVWYRQAPGKERELVAAISRTGGSTYYADSVKGRFTISRDNAKNNVYLQMNSLKPEDTAVYYCAARYAEYGSWGQGTQVTVSS”: the “polyreactivity (PSR sort gate)” value is on record as “high polyreactivity”.

In the case of “QVQLVESGGGSLRLSCAASALTFGGYTMGWYRQAPGKERELVAAISSSDSTNYADSVKGRFTISRDNAKNTVYLQMNSLKPEDTAVYYCAADSGQWSRYSSFGDEGDSWGQGTEVTVSS”, the “polyreactivity (PSR sort gate)” value is reported as “low polyreactivity”.

Turning to “QVQLVESGGGSLRLSCAASGLTFGGYTMGWSRQAPGKERELFAAISSSDSTNYADSVKGRFTISRDNAKNTVYLQMNSLKPEDTAVYYCAADSGQWCRFSSFGDEGDSWGQGTQVTVSS”, the “polyreactivity (PSR sort gate)” value is “low polyreactivity”.

Take “QVQLVESGGGSLRLSCAASGLTFGGYTMGWYRQAPGKERELVAAISSSDSTNYADSVKGRFTISRDNAKNTVYLQMNSLKPEDTAVYYCAADSGQWSRYSSFGDEGDSWGQGTQVTVSS”: the “polyreactivity (PSR sort gate)” value is “low polyreactivity”.

In the case of “QVQLVESGGGSVQAGGSLRLSCAASGFIFDGYTMGWYRQAPGKERELVAAISRSGGRTYYADSVKGRFTISRDNAKHTVYLQLNSLKPEDTAVYYCAVRYRQYSQTVASDYGYWGQGTQVTVSS”, the “polyreactivity (PSR sort gate)” value is “high polyreactivity”.

For “QVQLVESGGGSVQAGGSLRLSCAASGSIFYPYTMGWSRQAPGKERELVAVITGSGGRTYYADSVKGRFTISRDNAKNTVYLQMNSLKPEDTAVYYCNASPFTVRYYKYEYWGQGTQVTVSS”, the “polyreactivity (PSR sort gate)” value is listed as “low polyreactivity”.

Turning to “QVQLVESGGGVGQAGGSLRLSCAASGSTFDRYTMGWYRQAPGKERELVAAISISGGSTYYADSVKGRFTISRDNAKNTVYLQMNSLKPEVTEVYYCAARLDTVTDYYYWGQGTQVTVSS”, the “polyreactivity (PSR sort gate)” value is “low polyreactivity”.

On to “QVQLVESGGGVVQAGGSLRISCAASGSTFAANAMGWYRQAPGKERELVAAISTSGGRSYYADSVKGRFTISRDNAKNTLYLQMNSLKPEDSAGYYCAAYSRTSDRDFDYWGQGTQVTVSS”, for which the “polyreactivity (PSR sort gate)” value is given as “high polyreactivity”.

Take “QVQLVESGGGVVQAGGSLRLSCAASARTFYRNAMGWYRQAPGKERELVAAITGSGGSTYYADSVKGRFTISRDNAKNTVYLQMNSLKPEDTAVSYCAAGTRIYNSWIRFDYWGQGTQVTVSS”: the “polyreactivity (PSR sort gate)” value is reported as “high polyreactivity”.

For the sequence “QVQLVESGGGVVQAGGSLRLSCAASGFTFAQYAMGWYRQAPGKERELVATITRGGITYYADSVKGRFTISRDNAKNTVYLQMNSLKPEDTAVYYCAARVVPPYSRRDDYWGQGTQVTVSS”, the “polyreactivity (PSR sort gate)” value is “high polyreactivity”.

In the case of “QVQLVESGGGVVQAGGSLRLSCAASGFTFVYNAMGWYRQAPGKEREFVAAISGRGGSTYYADSVKGRFTISRDNAKNTVYLQMNSLKPEDTAVYYCATTYSWYYVPYKTHIYYYWGQGTQVTVSS”, the “polyreactivity (PSR sort gate)” value is listed as “low polyreactivity”.

In the case of “QVQLVESGGGVVQAGGSLRLSCAASGITFSRYAMGWYRQAPGKERELVAAISGSGGRTYYADSVKGRFTISRDNAKNTVYLQMNSLKPEDTAVYYCARESSYYKYYYWGQGTQVTVSS”, the “polyreactivity (PSR sort gate)” value is on record as “high polyreactivity”.

In the case of “QVQLVESGGGVVQAGGSLRLSCAASGNIFAVYAMGWYREAPGKERELVAAIRKSGATTYYADSVKGRFTISRDNAKNTVYLQIHSLKPEDTAVYYCAARTFKDAGTAYGSWGQGTQVTVSS”, the “polyreactivity (PSR sort gate)” value is listed as “high polyreactivity”.

For “QVQLVESGGGVVQAGGSLRLSCAASGRIIPYYAMGWYRPAPGTERELVAAISWTDGTTFYADSVKGRFTISRDNAKNTVYLQMNSLKPEDTAVYYCAASVYQDKGYDYWGQGTQVTVSS”, the “polyreactivity (PSR sort gate)” value is “low polyreactivity”.

In the case of “QVQLVESGGGVVQAGGSLRLSCAASGRISDVYVMGWYRQAPGKERELVAAITWSGGDTYYADSVKGRFTISRDNAKNTVYLQMNSLKPEDTAVYYCNADTGKWGGNGWYEFDYWGQGTQVTVSS”, the “polyreactivity (PSR sort gate)” value is “low polyreactivity”.

“QVQLVESGGGVVQAGGSLRLSCAASGRTFPYNPMGWYRQAPGKERELVAAISGRGGSTYYADSVKGRFTISRDNAKNTVYLQMNSLKPEVSAVYYCDARLPWSYYRTQGYNYWGQGTQVTVSS”: the “polyreactivity (PSR sort gate)” value is listed as “high polyreactivity”.

Turning to “QVQLVESGGGVVQAGGSLRLSCAASGRTSYWYAKGCYRQAPGKERELVADISWSGGSTYYADSVKGRFTISRDNAKNTVYLQMNSMKPEDTAVYYCNAAEQKYSIYYAFDTGPYDYWGQGTQVTVSS”, the “polyreactivity (PSR sort gate)” value is given as “low polyreactivity”.

Consider “QVQLVESGGGVVQAGGSLRLSCAASGSIFAGNAMGGSRQAPGKERELVAAITFSAGRTSYADSVKGRFTISRDNAKNTVYFQMNSLKPEDTAVYYCNALLTVRHVKSDYDYWGQGTQVTVSS”, for which the “polyreactivity (PSR sort gate)” value is given as “low polyreactivity”.

With “QVQLVESGGGVVQAGGSLRLSCAASGSIFRQNTMGWYRQAPGKERELVAAISSGGSTYYADSVKGRFTISRDNAKNTVYLQMNSPKPEDTAVYYCAAYHSFVWGDDYWGQGTQVTVSS”, the “polyreactivity (PSR sort gate)” value is “low polyreactivity”.

Consider “QVQLVESGGGVVQAGGSLRLSCAASGSILNNYAMGWYRPAPGKERELVAAISSSGGTNYADSVKGRFTISRDNAKNTVFLQMNSLKPEDTAVYYCNADVLDGGYVYWGQGTQVTVSS”, for which the “polyreactivity (PSR sort gate)” value is “low polyreactivity”.

On to “QVQLVESGGGVVQAGGSLRLSCAASGSIYSQYAMGWYRQAPGTERELVASISRRGGRTYYADSVKGRFTISRDNAKNTVYLQMNSLKPEETAVYYCAALDTAGPYNTLDIYDHWGQGTQVTVSS”, for which the “polyreactivity (PSR sort gate)” value is given as “high polyreactivity”.

Regarding “QVQLVESGGGVVQAGGSLRLSCAASGSTFGHNAMGWYRQAPGKERELVAVITSGGSTYYADSVKGRFTISRDNAKNTVYLQMNSLKPEDTAVYFCATDGGNSATVRYVASDYWGQGTQVTVSS”, the “polyreactivity (PSR sort gate)” value is “high polyreactivity”.

Turning to “QVQLVESGGGVVQAGGSLRLSCAASGSTFHYYAMGWYRQAHGKERELVAAISYSSGSTYYADSVKGRVTISRDNAKNHVYLQMISLKPEDTAVYYCATESYSYYIHTTYYYWGQGTQVTLSS”, the “polyreactivity (PSR sort gate)” value is listed as “low polyreactivity”.

On to “QVQLVESGGGVVQAGGSLRLSCAASGSTFYLYDMGWYRQEPGKERELVATITSGTSTTYADSVKGRYTISRDNAKNTVYLQMNSLKPEDTAVYYCNATDVGIITVGYGHGGYYWGQGTQVTVSS”, for which the “polyreactivity (PSR sort gate)” value is “low polyreactivity”.

As for “QVQLVESGGGVVQAGGSLRLSCAASGSTLARYAMGWYRQSPGKERELVAAISSDGRTYYADSVKGRFTISRDNAKNTVYLQMNSLKPEDTAVYYCSAVGKPGVYQEGDYWGQGTQVTVSS”, the “polyreactivity (PSR sort gate)” value is recorded as “high polyreactivity”.

As to “QVQLVESGGGVVQAGGSLRLSCAASGYIFFANAMGWYRQAPGKERELVAAISSDGRTYYADSVKGRFTISRDNANNTVYLQMNSLKPEDTAVYYSADYFSGLTYGYYVAGYDYWGQGTQVTVSS”, the “polyreactivity (PSR sort gate)” value was “low polyreactivity”.

As to “QVQLVESGGGVVQAGGSLRLSCAATGRIFGVYAMGWYRQAPGKERELVAAISSTGGSTYYADSVKGRFTISRDNAKNTVYLQMNSLKPEDTAVYYCEYDYWGQGSQVTVSS”, the “polyreactivity (PSR sort gate)” value was “low polyreactivity”.

Consider “QVQLVESGGGVVQAGGSLRLSCAGSGFTFPSYAMGWYRQAPGKERELVAAISVGGGSTYYADSVKGRFTISRDKAKNTVYLQMNSLKPEDTAVYYCNADYWYWVWLVGGNVDLDYWGQGTQVTVSS”, for which the “polyreactivity (PSR sort gate)” value is listed as “high polyreactivity”.

“QVQLVESGGGVVQAGGSLRLSCAGSGRTFPYYAVGWYRQAPGKERELVAVISSADSTNYADSVKGRFTISRDNAKNTVYLQMNSLKPEDTAVYYCADDAVYYGDDYWGQGTQVTVSS”: the “polyreactivity (PSR sort gate)” value is recorded as “low polyreactivity”.

In the case of “QVQLVESGGGVVQAGGSLRLSSAASGRIIRYYTMGWYRQAPGKERELVAAIRTYGGRTYYADSVKGRFTISRDNAKNSVYLQMNSLKPEDTAVYYCAADGGRPRYDSWGQGTQVTVSS”, the “polyreactivity (PSR sort gate)” value was “high polyreactivity”.

“QVQLVESGGGVVQAGGSLRLTCAASGRTCPIYAMGWYRQAPGKERELVATITWNDGNTYYADSVKGRFTISRDNAKNTVYLQMNCLKPEDTAVYYCAAKGGWPWHYHYQKNSEYDYWGQGTQVTVSS”: the “polyreactivity (PSR sort gate)” value was “low polyreactivity”.

The values are drawn from the nanobody polyreactivity screen of Harvey et al. (2022).
